Results on one molecule are retold here after article PMC13344149, “One-step purification of a bioactive PAK1-derived peptide” (Analytical biochemistry, 2025).

Data set [1] concerns the molecule itself. The data set is described as follows: LC-MS; LC-MS of the heat-treated PBD46 sample; major species at 10.23 kDa.
Data set [2] addresses T1, Cdc42 labelled with the extrinsic fluorophore sNBD (UniProt P60953 1-191, sNBD fluorophore (site not stated)).
T1 construct: Cdc42, small GTPase; also called sNBD-labeled Cdc42
The data set is described as follows: other fluorescence titration; Cdc42 labelled with the extrinsic fluorophore sNBD, PBD46 titrated; heat-purified and conventional PBD46 compared. As to conditions: both partners purified.

T1 sequence (P60953 whole entry): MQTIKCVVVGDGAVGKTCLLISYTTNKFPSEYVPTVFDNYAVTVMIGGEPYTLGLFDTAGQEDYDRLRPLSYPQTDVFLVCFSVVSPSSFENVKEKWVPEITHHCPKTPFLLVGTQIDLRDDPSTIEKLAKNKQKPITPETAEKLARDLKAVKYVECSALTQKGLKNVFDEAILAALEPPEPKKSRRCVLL

B1: PBD46, 46-residue peptide from PAK1 (PAK1 CRIB domain, residues 67-112) (peptide, UniProt Q13153 67-112, looked up)
chain: KKEKERPEISLPSDFEHTIHVGFDAVTGEFTGMPEQWARLLQTSNI
notes: The heat-purified and the conventionally purified sample are the same construct from the same host; also called PAK1-derived peptide; heat-purified PBD46; source: E. coli, as GST-PBD46
On to B1, for which the stoichiometry N (in general, the number of molecules, sites or subunits per partner or assembly) in data set [1] amounted to 2. The dissociation constant (Kd) (usually the equilibrium constant for the complex coming apart) in data set [2] is ~83 nM.
